Reference: the DeepSol protein solubility set

Assay: soluble on expression in E. coli; label from the status in PepcDB or PDB records

Sequence	soluble on expression in E. coli
MQEIIASVDHIKFDLEIAVEQQLGAQPLPFPGMDKSGAAVCEFFLKAACGKGGMCPFRHISGEKTVVCKHWLRGLCKKGDQCEFLHEYDMTKMPECYFYSKFGECSNKECPFLHIDPESKIKDCPWYDRGFCKHGPLCRHRHTRRVICVNYLVGFCPEGPSCKFMHPRFELPMGTTEQPPLPQQTQPPAKQRTPQVIGVMQSQNSSAGNRGPRPLEQVTCYKCGEKGHYANRCTKGHLAFLSGQ	soluble
GPALVKQSHPKNPNDKHRSKKCKDPKPRVKKLKYHQYIPPDQKGEKNEPQMDSNYARLLQQQQLFLQLQILSQQKQHYNYQTILPAPFKPLNDKNSNSGNSALNNATPNTPRQNTSTPVRKPGPLPSSLDDLKVSELKTELKLRGLPVSGTKPDLIERLKPYQEVNSSGLAAGGIVAVSSSAIVTSNPEVTVALPVTTLHNTVTSSVSTLKAELPPTGTSNATRVENVHSPLPISPSPSEQSSLSTDDTNMADTFTEIMTMMSPSQFLSSSPLRMTNNEDSLSPTSSTLSNLELDAAEKDRKLQEKEKQIEELKRKLEQEQKLVEVLKMQLEVEKRGQQQRPLEAQPSAPGHSVKSDQKHGSLGSSIKDEASLPDCSSSRQPIPVASHAVGQPVSTGGQTLVAKKAVVIKQEVPVGQAEQQSVVSQFYVSSQGQPPPAVVAQPQALLTTQTAQLLLPVSIQGSSVTSVQLPVGSLKLQTSPQAGMQTQPQIATAAQIPTAALASGLAPTVPQTQDTFPQHVLSQPQQVRKVFTNSASSNTVLPYQRHPAPAVQQPFINKASNSVLQSRNAPLPSLQNGPNTPNKPSSPPPPQQFVVQHSLFGSPVAKTKDPPRYEEAIKQTRSTQAPLPEISNAHSQQMDDLFDILIKSGEISLPIKEEPSPISKMRPVTASITTMPVNTVVSRPPPQVQMAPPVSLEPMGSLSASLENQLEAFLDGTLPSANEIPPLQSSSEDREPFSLIEDLQNDLLSHSGMLDHSHSPMETSETQFAAGTPCLSLDLSDSNLDNMEWLDITMPNSSSGLTPLSTTAPSMFSADFLDPQDLPLPWD	soluble
MGSDKIHHHHHHMTKPPTLRPRFWETVPLDRMTPSEWEALCDGCGKCCLNKIEFEDTGEVAFTRIACRLLDGDSCRCSNYEIRRQFVPDCVQLSPATLPKIVYWMPRTCAYRLLHEGKSLPGWHYLLTGDRNSVHDAGASVQGWTVPEFEVAEEDWEDHIIEETP	not soluble
MLGKDYMLAIILVNCDDDLWGDHSLEVEAGLPPGWRKIHDAAGTYYWHVPSGSTQWQRPTWELGDAEDPGTGTEGIWGLRPPKGRSFSSLESSLDRSNSLSWYGGESYIQSMEPGAKCFAVRSLGWVEVPEEDLAPGKSSIAVNNCIQQLAQTRSRSQPPDGAWGEGQNMLMILKKDAMSLVNPLDHSLIHCQPLVHIRVWGVGSSKGRDRDFAFVASDKDSCMLKCHVFCCDVPAKAIASALHGLCAQILSERVEVSGDASCCSPDPISPEDLPRQVELLDAVSQAAQKYEALYMGTLPVTKAMGMDVLNEAIGTLTARGDRNAWVPTMLSVSDSLMTAHPIQAEASTEEEPLWQCPVRLVTFIGVGRDPHTFGLIADLGRQSFQCAAFWCQPHAGGLSEAVQAACMVQYQKCLVASAARGKAWGAQARARLRLKRTSSMDSPGGPLPLPLLKGGVGGAGATPRKRGVFSFLDAFRLKPSLLHMP	soluble
MGSDKIHHHHHHMAAELKTITVLGAGGKMGMRISANFQKSDYQVFYCENSPRAQEQVVAAGRELSIAEQVIPESDVVILAVPDIALKAVSGIVVPQMKSNAVLLTLDPAAAYANLIAKRDDIDYAVAHPCHPSVFLDRFTPEEHADAFGGVAAPQHVAASYETGSDEQKATLARVVKVMYGPVIDVHWVTVKQLAYLEPTLVETVACMVGTLMKEALDETINTIGVPEAAAKAMLYGHIQIALAVAFRSTNPFSDACMIAIEYGKENIIKPDWKKIFDEKELDLVIAKMLKIDAIER	not soluble
MGSDKIHHHHHHMTAIANRYEFVLLFDVENGNPNGDPDAGNMPRIDPETGHGLVTDVCLKRKIRNHVALTKEGAERFNIYIQEKAILNETHERAYTACDLKPEPKKLPKKVEDAKRVTDWMCTNFYDIRTFGAVMTTEVNCGQVRGPVQMAFARSVEPVVPQEVSITRMAVTTKAEAEKQQGDNRTMGRKHIVPYGLYVAHGFISAPLAEKTGFSDEDLTLFWDALVNMFEHDRSAARGLMSSRKLIVFKHQNRLGNAPAHKLFDLVKVSRAEGSSGPARSFADYAVTVGQAPEGVEVKEML	not soluble
MSLIIIISGPPGSGKTSVAIKLANELSYKFISAGKIFRDIAQSMGLDIINLNRVAESNFDIDKMVDKKIHEYVLRERNLIVESHIAGWIFREYTDVAIYLWAPLKIRANRIAIRDKISYVEAVSQIIRREYMHYKRFNKFYGIDINDLSVFDLVINTSNIDINNIVKLILDYLSSVSHNEGHHHHHH	soluble
MSLTETAIENSVTVFHIESDEIKGRIIGREGRNIRALEAATGVEIVVDDTPEAIVLSAFDPVRREIARLALHQLVTDGRIHPARIEEVVAKVRKQVEEEIIETGKRTTIDLGIHGLHPELIRIIGKMKYRSSYGQNLLQHARETANLCAVMASELGLNPKKAKRAGLLHDIGKVPDEEPELPHALLGMKLAEKFKEKPDICNAIGAHHDEIEMTSLLAPIVQVCDAISGARPGARREIVEAYIKRLNDLEQLAMSYPGVTKTYAIQAGRELRVIVGADKIDDKQTENLSGEIAKKIQDEMTYPGQVKITVIRETRAVSFAKEGHHHHHH	soluble
MTNPQFAGHPFGTTVTAETLRNTFAPLTQWEDKYRQLIMLGKQLPALPDELKAQAKEIAGCENRVWLGYTVAENGKMHFFGDSEGRIVRGLLAVLLTAVEGKTAAELQAQSPLALFDELGLRAQLSASRSQGLNALSEAIIAATKQV	not soluble
MTQVPPSASPADLLAVLERIATALERQGAPAVPANSLDGADAFVWHAAESWLEPVCRVNRVDIALLQGIERQRQTLYDNTLRFAHGLPANNALLWGARGTGKSSLVKAVHASVNQALTAKGAAPVALVEIHREDIPTLPRLLRILAASGRPCLLFCDDLSFDGNDSSYKSLKAVLEGGIEGRPDTVIFYATSNRRHLLAREMVENEQSTALHAGEAVEEKVSLSDRFGLWLGFHNVDQPTYFDIVDGYARAYGLDIETEDLHREAREWSMARGSRSGRTAWQFIQDLAGRLGKTLELEHHHHHH	soluble
MGSDKIHHHHHHMKLYELAMTPSARRVNIFLKELGLNEQELGLERESLNLRAGDNLSDEFKAISVNGRIPVLELDDGQTLCESVAICRYFDEIITSAHSLFGDTPLEKAQVEMWQRICELQGLFVAFQAFRNITKVYEDRERCVEAWGQESRQRVIEFLPTLEKQLGQQPFVAGQNFSIADITAYVMMSFIKHLEITPSDDQPHLTAWLTKMEQRPSIIAVNG	not soluble
MGEHICFRRNERLATVNPYWRGNPMVRGRFFNRQHRFRPGMGSVLKWRLSPNPQRKEKKTVKWDPKVCYLRSLDAVVGDSLIWLGHNSFFLQLAGKRIMFDPVFGNIPFVKRQSEFPANPDIFTEIDYLLISHDHFDHLDKQSITRLLNNNPQMKLFCGLGTGELIKSWFPEMRVIEAGWYQQLEDEGLKITFLPAQHWSKRSVRDGGQRLWGAFMLQGNGVSLYYSGDTGYSTHFREIPDLFGAPDYALLGIGAYKPRWFMRPNHISPYESLTASEEMHAGITIPMHYGTFDLSDEPLHDPPKVFAAEAKKRKIRVEIPYLGEIVKLSKRK	not soluble
MEEVFTAALESKIFRKRWVLLPDYVPDVLPHREAELRRLAEVLAPALRGEKPSNALLYGLTGTGKTAVARLVLRRLEARASSLGVLVKPIYVNARHRETPYRVASAIAEAVGVRVPFTGLSVGEVYERLVKRLSRLRGIYIIVLDEIDFLPKRPGGQDLLYRITRINQELGDRVWVSLVGITNSLGFVENLEPRVKSSLGEVELVFPPYTAPQLRDILETRAEEAFNPGVLDPDVVPLCAALAAREHGDARRALDLLRVAGEIAERRREERVRREHVYSARAEIERDRVSEVVRTLPLHAKLVLLSIMMLEDGGRPASTGEIYERYKELTSTLGLEHVTLRRVSGIISELDMLGIVKSRVVSRGRYGKTREVSLDADRLAVENALSEDPFVARLL	not soluble
MAQSTQEAEGEQQRRQAVLRERYLSFLQKSADKPATIEMCERTTVTATIKAFQPSSEHVIVGTVAVA	not soluble
EDRSVHFDSMSNGQGAASALPIFAEFLKRVYADPKLGYTTEEKFEFPQDFQPCMMDQNVEYFDAGGGEVVEPLPEILVELP	not soluble
